Source: US20240417485A1 (UNIVERSITY OF PITTSBURGH OF THE COMMONWEALTH SYSTEM OF …, published 2024)

Tests used:
[1] = target: T1, recombinant uPAR-Biotin (human, UniProt Q03405 23-303, limits assumed, biotin, site not stated); assay: BLItz, uPAR-Biotin on streptavidin biosensor
T1 construct: also called human uPAR (BLItz)

[2] = target: T2, Human uPAR-His recombinant protein (human, UniProt Q03405 23-303); assay: ELISA, uPAR-His coated, anti-FLAG-HRP detection
T2 construct: Bought protein; also called recombinant human uPAR; recombinant human uPAR protein; not shown: His tag

[3] = target: human CD3 protein (human); assay: ELISA, human CD3 protein coated, anti-human IgG1 Fc-HRP detection
Description: (§1) ELISA: The binding and specificity of VH, VH-Fc, and DbTE to uPAR or CD3 were analyzed by ELISA. uPAR-His protein or CD3 protein was coated at 50 ng/well at 4° C. overnight, then blocked with 5% milk for 1 hours at 37° C. After washing 3 times by 0.05% PBST, 3-fold serially diluted VH and VH-Fc binders were incubated on the plate for 1 hour at 37° C. The binding of VH candidates was detected by anti-FLAG M2-peroxidase (HRP) antibody (Sigma-Aldrich) while VH-Fc or DbTE binding was detected by HRP conjugated goat anti-human IgG1 Fc (Sigma-Aldrich) at 1:1000 dilution. The plates were washed 3 times by 0.05% PBST between each reagent's incubation. Binding activity was detected using 3,3′,5,5′-tetramethylbenzidine (Sigma-Aldrich) and was stopped by TMB stop buffer (ScyTek Laboratories). Absorbance was read at 450 nm.

[4] = target: T2, Human uPAR-His recombinant protein; assay: ELISA, recombinant human uPAR coated, anti-human IgG1 Fc-HRP detection
Description: as §1

B1: VH 3 (VHH)
VHH: EVQLVESGGGLVQPGGSLRLSCAASGFTFSRYWMSWVRQAPGKALEWIGEINHSGSTNYNPSLKSLVTISRDNSKNTLYLQMNSLRAEDTATYYCARSLVPALSYYYYYGMDVWGQGTTVTVSS
notes: Fully human single VH domain from a phage library, expressed in E. coli; It was purified on Ni-NTA and detected with anti-FLAG, so a His tag and a FLAG tag are implied; also called clone 3; anti-uPAR VH 3
[1]
  Kd: 17.1 nM
  koff: 0.0014 s⁻¹
  kon: 79000 M⁻¹ s⁻¹
[2]
  EC50: 12.1 nM

B2: DbTE 3 (bispecific antibody, human IgG1)
chain: EVQLVESGGGLVQPGGSLRLSCAASGFTFSRYWMSWVRQAPGKALEWIGEINHSGSTNYNPSLKSLVTISRDNSKNTLYLQMNSLRAEDTATYYCARSLVPALSYYYYYGMDVWGQGTTVTVSSGSGSSGSGSSGSGSSQVQLVQSGGGVVQPGRSLRLSCKASGYTFTRYTMHWVRQAPGKGLEWIGYINPSRGYTNYNQKVKDRFTISRDNSKNTAFLQMDSLRPEDTGVYFCARYYDDHYCLDYWGQGTPVTVSSGGGGSGGGGSGGGGSGGGGSGGGGSGGGGSDIQMTQSPSSLSASVGDRVTITCSASSSVSYMNWYQQTPGKAPKRWIYDTSKLASGVPSRFSGSGSGTDYTFTISSLQPEDIATYYCQQWSSNPFTFGQGTKLQITRGSGSSGDKTHTCPPCPAPEAAGGPSVFLFPPKPKDTLMISRTPEVTCVVVDVSHEDPEVKFNWYVDGVEVHNAKTKPREEQYNSTYRVVSVLTVLHQDWLNGKEYKCKVSNKALGAPIEKTISKAKGQPREPQVYTLPPSRDELTKNQVSLTCLVKGFYPSDIAVEWESNGQPENNYKTTPPVLDSDGSFFLYSKLTVDKSRWQQGNVFSCSVMHEALHNHYTQKSLSLSPGKGSHHHHHH
notes: Single chain: VH 3, linker, humanized OKT3 scFv (VH-(G4S)6-VL), human IgG1 Fc with LALAPG mutations, His tag; also called anti-uPAR DbTE 3; domain-based bispecific T cell engager 3
[3]
  EC50: 28.8 nM
[1]
  Kd: 6.6 nM
  koff: 0.00072 s⁻¹
  kon: 110000 M⁻¹ s⁻¹
[4]
  EC50: 7.7 nM

B3: VH 115 (VHH)
VHH: EVQLVESGGGLVQPGGSLRLSCKGSGFTFGDYAIGWVRQAPGQRLEWIGWINTNSGSPKYAQGFTGRFTISRDNSKNTLYLQMNSLRAEDTAVYYCATDVVVPWGQGSQVTVSS
notes: Fully human single VH domain from a phage library, expressed in E. coli; It was purified on Ni-NTA and detected with anti-FLAG, so a His tag and a FLAG tag are implied
[1]
  Kd: 1.7 nM
  koff: 3.6e-05 s⁻¹
  kon: 21000 M⁻¹ s⁻¹
[2]
  EC50: 34.2 nM

B4: DbTE 115 (bispecific antibody, human IgG1)
chain: EVQLVESGGGLVQPGGSLRLSCKGSGFTFGDYAIGWVRQAPGQRLEWIGWINTNSGSPKYAQGFTGRFTISRDNSKNTLYLQMNSLRAEDTAVYYCATDVVVPWGQGSQVTVSSGSGSSGSGSSGSGSSQVQLVQSGGGVVQPGRSLRLSCKASGYTFTRYTMHWVRQAPGKGLEWIGYINPSRGYTNYNQKVKDRFTISRDNSKNTAFLQMDSLRPEDTGVYFCARYYDDHYCLDYWGQGTPVTVSSGGGGSGGGGSGGGGSGGGGSGGGGSGGGGSDIQMTQSPSSLSASVGDRVTITCSASSSVSYMNWYQQTPGKAPKRWIYDTSKLASGVPSRFSGSGSGTDYTFTISSLQPEDIATYYCQQWSSNPFTFGQGTKLQITRGSGSSGDKTHTCPPCPAPEAAGGPSVFLFPPKPKDTLMISRTPEVTCVVVDVSHEDPEVKFNWYVDGVEVHNAKTKPREEQYNSTYRVVSVLTVLHQDWLNGKEYKCKVSNKALGAPIEKTISKAKGQPREPQVYTLPPSRDELTKNQVSLTCLVKGFYPSDIAVEWESNGQPENNYKTTPPVLDSDGSFFLYSKLTVDKSRWQQGNVFSCSVMHEALHNHYTQKSLSLSPGKGSHHHHHH
[3]
  EC50: 8.7 nM
[1]
  Kd: 1.2 nM
  koff: 4.2e-05 s⁻¹
  kon: 36000 M⁻¹ s⁻¹
[4]
  EC50: 28 nM
